The record followed here is publication PMC4148842.

The term Kd denotes the constant that tells how readily two partners part at equilibrium. Higher therefore signals lower affinity.

Assay [1] has as its target peptide II-44J. Briefly: ELISA; SPBA on truncated and Ala-substituted II-44 variant peptides, carried out as for Fig. 1 (Fig. 4). (ELISA stands for enzyme-linked immunosorbent assay.)
In assay [2] the target is Fibrous bovine type I collagen (bovine) (UniProt P02453). In words: ELISA; SPBA, increasing concentrations of MMP-13 or MMP-13(E204A) on wells coated with fibrillar or monomeric type I collagen (10 μg/ml); KD from fitted curves (Fig. 3).
Chain of Fibrous bovine type I collagen (bovine) (P02453 162-1217, chain 1 of 2): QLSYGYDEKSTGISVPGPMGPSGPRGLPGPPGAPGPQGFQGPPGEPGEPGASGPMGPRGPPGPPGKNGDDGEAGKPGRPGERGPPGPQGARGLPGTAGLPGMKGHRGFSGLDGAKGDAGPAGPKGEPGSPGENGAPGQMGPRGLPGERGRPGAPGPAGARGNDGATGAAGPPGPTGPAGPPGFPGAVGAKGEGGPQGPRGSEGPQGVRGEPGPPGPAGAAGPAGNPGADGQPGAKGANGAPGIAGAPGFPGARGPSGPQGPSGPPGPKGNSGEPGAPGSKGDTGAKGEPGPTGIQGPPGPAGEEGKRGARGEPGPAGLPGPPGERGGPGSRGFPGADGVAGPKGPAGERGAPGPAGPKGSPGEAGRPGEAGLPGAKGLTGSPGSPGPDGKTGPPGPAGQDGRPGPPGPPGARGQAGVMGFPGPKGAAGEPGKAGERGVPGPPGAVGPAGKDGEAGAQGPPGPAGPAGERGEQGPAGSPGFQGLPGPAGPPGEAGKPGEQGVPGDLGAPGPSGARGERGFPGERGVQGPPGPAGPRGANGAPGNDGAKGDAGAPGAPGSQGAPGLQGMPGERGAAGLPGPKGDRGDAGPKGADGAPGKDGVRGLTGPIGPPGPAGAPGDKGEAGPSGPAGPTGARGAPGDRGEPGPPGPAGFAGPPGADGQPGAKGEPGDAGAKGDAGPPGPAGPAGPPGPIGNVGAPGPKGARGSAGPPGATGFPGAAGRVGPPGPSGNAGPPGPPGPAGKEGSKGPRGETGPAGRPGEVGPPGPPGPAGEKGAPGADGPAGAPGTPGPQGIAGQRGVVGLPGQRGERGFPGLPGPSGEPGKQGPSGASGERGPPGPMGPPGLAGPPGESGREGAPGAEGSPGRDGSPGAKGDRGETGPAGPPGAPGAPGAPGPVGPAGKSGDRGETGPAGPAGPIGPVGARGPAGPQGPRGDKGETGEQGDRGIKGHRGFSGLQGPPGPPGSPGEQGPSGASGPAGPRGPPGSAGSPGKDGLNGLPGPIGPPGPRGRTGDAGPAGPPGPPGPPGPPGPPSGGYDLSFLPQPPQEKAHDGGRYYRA
Chain of Fibrous bovine type I collagen (bovine) (P02465 80-1117, chain 2 of 2, further chain): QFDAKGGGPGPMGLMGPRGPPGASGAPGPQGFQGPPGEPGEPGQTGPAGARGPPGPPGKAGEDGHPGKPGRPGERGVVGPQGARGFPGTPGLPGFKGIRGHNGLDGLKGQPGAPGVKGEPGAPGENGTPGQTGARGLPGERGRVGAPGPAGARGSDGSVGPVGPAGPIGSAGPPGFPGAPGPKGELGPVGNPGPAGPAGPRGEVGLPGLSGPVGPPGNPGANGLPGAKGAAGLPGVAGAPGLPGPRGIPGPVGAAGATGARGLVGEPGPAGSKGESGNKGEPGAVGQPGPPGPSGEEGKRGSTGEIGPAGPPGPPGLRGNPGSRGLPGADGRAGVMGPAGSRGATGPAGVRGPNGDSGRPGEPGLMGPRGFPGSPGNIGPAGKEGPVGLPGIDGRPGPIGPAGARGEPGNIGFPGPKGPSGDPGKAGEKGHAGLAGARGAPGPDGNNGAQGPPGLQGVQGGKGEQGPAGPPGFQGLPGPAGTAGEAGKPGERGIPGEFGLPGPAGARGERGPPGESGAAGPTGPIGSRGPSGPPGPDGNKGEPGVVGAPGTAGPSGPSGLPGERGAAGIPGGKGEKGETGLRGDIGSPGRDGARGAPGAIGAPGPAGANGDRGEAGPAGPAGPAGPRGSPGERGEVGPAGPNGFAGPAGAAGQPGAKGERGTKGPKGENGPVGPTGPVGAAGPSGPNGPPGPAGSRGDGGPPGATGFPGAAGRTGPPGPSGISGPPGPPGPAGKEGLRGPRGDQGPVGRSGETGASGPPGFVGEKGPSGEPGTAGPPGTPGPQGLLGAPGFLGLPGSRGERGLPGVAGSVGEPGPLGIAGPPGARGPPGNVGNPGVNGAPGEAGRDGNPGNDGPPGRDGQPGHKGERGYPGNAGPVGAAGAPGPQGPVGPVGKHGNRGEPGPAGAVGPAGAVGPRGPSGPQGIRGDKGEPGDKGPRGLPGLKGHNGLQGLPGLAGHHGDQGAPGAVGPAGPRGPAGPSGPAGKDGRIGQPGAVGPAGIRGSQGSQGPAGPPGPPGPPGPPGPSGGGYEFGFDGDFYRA
The target in assay [3] is Monomeric collagen (type I) (UniProt P02453). Described as above.
Chain of Monomeric collagen (type I) (P02453 162-1217, chain 1 of 2): as the sequence (P02453 162-1217, chain 1 of 2) above
Chain of Monomeric collagen (type I) (P02465 80-1117, chain 2 of 2, further chain): as the sequence (P02465 80-1117, chain 2 of 2, further chain) above
A further assay deals with Toolkit peptide II-13. Briefly: ELISA; solid-phase binding assay (SPBA), Fig. 1: Toolkit II peptides, fibrillar type I collagen or GPP10 coated at 10 μg/ml on Immulon 2 HB wells; MMP preparation or Hpx at 83 nM in TBS with 1 mg/ml BSA and 0.1% Tween-20, 1 h at 24 °C; detected with an antibody to the MMP-13 hinge region (Hpx: anti-GST), A450.
In another assay the target is Toolkit peptide II-17. The description is as above.
The target in another assay is Toolkit peptide II-21. The description is as above.
The next assay has as its target Toolkit peptide II-24. The assay is described as above.
For another assay, the target named is Toolkit peptide II-28. Described as above.
A further assay addresses Toolkit peptide II-44. Described as above.
Another assay has as its target Toolkit peptide II-45. The assay is described as above.
Another assay has as its target Toolkit peptide II-49. Described as above.
The next assay has as its target Toolkit peptide II-50. Described as above.
The target of the next assay is Toolkit peptide II-51. The assay is described as above.
The next assay deals with Toolkit peptide II-52. The assay is described as above.
In the next assay the target is Toolkit peptide II-53. Described as above.
A further assay has as its target Toolkit peptide II-54. The description is as above.
The target of the next assay is Toolkit peptide II-55. Described as above.
The target in the next assay is Toolkit peptide II-56. Described as above.
A further assay concerns the target peptide II-44A. Briefly: solid-phase binding assay (SPBA). As to conditions: read off a plot.
A further assay concerns the target peptide II-44B. In words: solid-phase binding assay (SPBA). As to conditions: read off a plot.
Another assay deals with peptide II-44C. Briefly: solid-phase binding assay (SPBA). Conditions: read off a plot.
Another assay has as its target peptide II-44D. In words: solid-phase binding assay (SPBA). Conditions: parent: est. 0.19; read off a plot.
A further assay has as its target peptide II-44E. In words: solid-phase binding assay (SPBA). Conditions: read off a plot.
The target in another assay is peptide II-44F. Briefly: solid-phase binding assay (SPBA). Conditions: read off a plot.
For the next assay, the target named is peptide II-44H. Briefly: solid-phase binding assay (SPBA). Conditions: parent: est. 0.31; read off a plot.
The target in a further assay is peptide II-44I. Briefly: solid-phase binding assay (SPBA). As to conditions: read off a plot.
The target of assay [4] is peptide II-44J. In words: solid-phase binding assay (SPBA). As to conditions: parent: est. 0.26; read off a plot.
For the next assay, the target named is peptide II-44G. In words: solid-phase binding assay (SPBA). Conditions: parent: est. 0.10; read off a plot.
Assay [5] deals with Fibrous bovine type I collagen (bovine) (UniProt P02453). Briefly: ELISA; solid-phase binding assay (SPBA), Fig. 1: Toolkit II peptides, fibrillar type I collagen or GPP10 coated at 10 μg/ml on Immulon 2 HB wells; MMP preparation or Hpx at 83 nM in TBS with 1 mg/ml BSA and 0.1% Tween-20, 1 h at 24 °C; detected with an antibody to the MMP-13 hinge region (Hpx: anti-GST), A450.

On to MMP-13(E204A) (enzyme), for which the A450 is 0.8 A450 with peptide II-44J [1]; more than 0.3 A450 with Toolkit peptide II-13; more than 0.3 A450 with Toolkit peptide II-17; more than 0.3 A450 in the assay with Toolkit peptide II-21; less than 0.2 A450 with Toolkit peptide II-24; less than 0.2 A450 in the assay with Toolkit peptide II-28. For the same substance, the A450 with Toolkit peptide II-44 was more than 1.2 A450; in the assay with Toolkit peptide II-45, more than 0.3 A450; with Toolkit peptide II-49 it was more than 0.3 A450; in the assay with Toolkit peptide II-50, more than 0.3 A450; with Toolkit peptide II-51, more than 0.3 A450; with Toolkit peptide II-52 it was more than 0.3 A450. In addition, the A450 with Toolkit peptide II-53, with Toolkit peptide II-54, with Toolkit peptide II-55 and in the assay with Toolkit peptide II-56 was more than 0.3 A450 throughout. The dissociation constant Kd in [2] came out at 52 nM; in assay [3], 26 nM.
As to proMMP-13 (from UniProt P45452) E204A, the response in the assay with peptide II-44A (parent: est. 0.41) was found to be 0.41 A450; with peptide II-44B (parent: est. 0.08), 0.08 A450; with peptide II-44C (parent: est. 0.24) it was 0.23 A450; in the assay with peptide II-44D, 0.15 A450; in the assay with peptide II-44E (parent: est. 0.33) it was 0.31 A450; with peptide II-44F (parent: est. 0.09), 0.12 A450. The values for the response with peptide II-44H, in the assay with peptide II-44I (parent: est. 0.41) and with peptide II-44J [4] were 0.29 A450, 0.36 A450 and 0.29 A450, respectively.
As for “MMP-13 GST-Hpx domain (domain or fragment)”, the A450 with peptide II-44J [1] is 0.4 A450; with Toolkit peptide II-44 it was 0.8 A450.
MMP-13 (from UniProt P45452) E204A: the response in the assay with peptide II-44A (parent: est. 0.19) was 1.1 A450; in the assay with peptide II-44B (parent: est. 0.09) it was 0.15 A450; with peptide II-44C (parent: est. 0.18) it was 0.87 A450; with peptide II-44E (parent: est. 0.16) it was 0.95 A450; in the assay with peptide II-44F (parent: est. 0.08), 0.57 A450; in the assay with peptide II-44G, 0.57 A450. Further, the response in the assay with peptide II-44I (parent: est. 0.20) was 1.1 A450.
“proMMP-13 (from UniProt P45452 20-471) (enzyme)” yielded an A450 in [5] of more than 1 A450.
